B1: RHOBTB3 (parent)
chain: STTEGIQLAKELGATYLELHSLDD

Variants of: B1
Test: protein stability index of a GFP-peptide fusion (GPS, HEK-293T) (PSI 1-6); higher = more stable
Conditions: c terminus: a fixed tail appended
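Further: lentivirally expressed fusions sorted by FACS into six bins by GFP to DsRed ratio, PSI derived from sequencing read proportions per bin multiplied by bin number.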

Protein stability index: each site, then its substitutions
G5: N 4.27; P 4.09; Q 3.94; R 3.89; S 3.56; T 4.16; V 3.98; W 1.56; Y 2.91
I6: C 5.12; E 4.71; F 2.59; G 4.9; H 4.62; K 3.94; L 2.87; M 3.01; N 4.39; P 4.31; Q 4.54; R 3.6; S 4.39; T 1.68; V 4.05; W 2.7; Y 3.22
Q7: A 3.7; C 3.49; D 4.68; E 3.71; F 3.37; G 3.36; H 3.99; I 3.37; K 3.96; L 2.95; M 2.86; N 3.24; P 3.65; R 2.19; S 4.24; T 3.68; V 3.54; W 2.5; Y 3.52
L8: A 4.29; C 3.94; D 5.04; E 4.97; F 4.24; G 5.04; H 4.53; I 4.41; K 4.78; M 4.11; N 4.57; P 4.92; Q 5.2; R 4.41; S 4.58; T 4.97; V 4.44; W 3.86; Y 4.97
A9: C 3.08; D 4.64; F 2.28; G 4.34; H 4.38; I 2.63; K 3.6; L 1.19; M 1.74; N 4.06; P 4.49; Q 3.52; R 3.01; S 4.24; T 4.21; V 2.53; W 2.64; Y 3.12
K10: A 2.73; E 4.35; F 1.38; G 1.71; H 3.15; N 2.84; P 4.33; Q 3.57; R 2.99; S 3.13; T 1.84; V 2.06; W 1.5
E11: A 1.53; C 3.42; D 4.01; F 2.56; G 3.86; H 4.34; I 2.39; K 2.94; L 2.19; M 3.19; N 3.84; P 3.92; Q 3.89; T 3.61; V 2.87; W 1.73; Y 2.88
L12: A 5; C 3.96; D 5.62; E 4.99; F 3.89; G 4.89; H 4.78; I 3.92; K 5.07; M 4.48; N 4.77; P 4.42; Q 4.31; S 4.92; T 4.88; V 4.43; Y 4.81
G13: A 1.75; C 2.88; D 4.31; E 2.73; F 2.36; H 2.09; I 2.79; K 3.16; L 1.28; M 1.66; N 2.64; P 4.81; R 1.66; S 3.35; T 2.72; V 2.52; W 1.39; Y 1.42
A14: D 2.87; E 4.25; H 4.1; I 3.31; K 3.01; L 3.15; M 3.58; N 3.59; P 4.28; Q 3.28; R 3.59; S 4.02; T 4.18; V 3.85; W 1.75; Y 3.7
T15: C 3.59; D 4.41; E 4.87; F 2.59; G 3.97; H 2.69; I 1.99; K 4.33; L 2.1; M 3.27; N 4.72; P 3.37; Q 4.33; R 3.83; S 3.71; V 2.17; W 2.02; Y 3.49
Y16: D 3.29; E 4.35; F 3.27; G 4.83; H 4.25; I 3.47; K 4.81; L 2.91; N 5.25; P 5.66; Q 4.33; R 4.18; S 4.84; T 4.28; V 3.59; W 2.49
L17: A 5.04; C 4.14; D 5.55; E 4.73; F 3.27; G 5.66; H 4.8; I 2.9; K 4.83; M 4.11; N 4.6; P 4.88; Q 4.74; R 3.94; S 4.61; T 4.82; V 4.15; Y 4.12
E18: A 3.22; C 2.62; D 4.36; F 2; G 3.72; H 3.07; I 1.86; K 3.2; L 2.41; M 2.66; N 4.02; P 3.97; Q 3.39; R 2.96; S 3.86; T 3.71; V 2.38; W 1.61; Y 2.57
L19: A 4.63; C 4.71; D 5.77; E 4.76; F 4.21; G 5.31; H 5.02; I 2.38; K 5.37; M 4.38; N 5; P 5.37; Q 5.55; R 4.43; S 5.01; T 4.96; V 4.68; W 4.68; Y 4.82
H20: A 2.73; C 2.68; D 4.95; E 3.45; F 2.75; I 1.76; K 2.42; L 1.41; N 4.46; P 4.93; Q 3.13; S 3.44; T 3.15; V 1.65; W 1.93; Y 2.44
S21: A 2.93; C 3.14; D 4.49; E 3.93; F 1.64; G 4; H 3.38; K 3.02; N 4; P 4.06; Q 3.39; R 2.86; T 3.79; V 2.93; W 1.03; Y 1.59
L22: A 4.99; C 4.01; D 4.96; E 5.93; F 3.47; G 3.38; H 4.62; I 3.7; K 4.68; M 4.32; N 4.68; P 4.54; Q 4.91; R 5.07; S 4.47; T 4.15; V 4.3; W 3.45; Y 4.41
D23: A 2.43; C 1.87; F 1.71; H 3.71; I 2.07; K 3.14; L 2.21; N 3.13; P 3.66; Q 3.55; R 2.81; S 3; T 3.75; V 2.29; W 2.92; Y 2.42
D24: A 2.17; E 3.35; G 1.94; H 2.44; I 2.7; K 3.02; M 1.38; N 2.16; P 3.16; Q 1.96; R 2.26; S 2.02; T 2.05; V 1.57

Source: the supplement of paper PMC10567573
